According to patent US20250000946A1 (WUXI BIOLOGICS IRELAND, published 2025):

Molecular target: T1, W3XX115-T2U0.E44-6.uIgG4V322 (human, UniProt P60568 21-149)
T1 construct: IL-2 del STLT; E44 format, IgG4 FALA; IL-2 part tied by the design 'Del STLT'; not shown: IgG4 hinge-Fc with FALA (uIgG4V322), no linker
Assay: SPR Biacore 8K; set-up for IL-2Rβ not described

Kd: 1010 nM
B1: W369-hPro2.ECD.His, IL2Rβ ECD (receptor)
chain: AVNGTSQFTCFYNSRANISCVWSQDGALQDTSCQVHAWPDRRRWNQTCELLPVSQASWACNLILGAPDSQKLTTVDIVTLRVLCREGVRWRVMAIQDFKPFENLRLMAPISLQVVHVETHRCNISWEISQASHYFERHLEFEARTLSPGHTWEEAPLLTLKQKQEWICLETLTPDTQYEFQVRVKPLQGEFTTWSPWSQPLAFRTKPAALGKDLEGGGGSGGGGHHHHHH
notes: Entry includes linker and C-terminal 6xHis tag; also called CD122
